# Assay: yeast display, Sf9 membrane polyspecificity reagent, FACS + sequencing; frameworks hold sequencing errors
# Outline: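 A synthetic nanobody library was expressed on Saccharomyces cerevisiae BJ5465 by galactose induction for 36–48 hours. The library was stained for 1 hour at 4 °C with 10% biotinylated, detergent-solubilized Sf9 membrane reagent and enriched with streptavidin microbeads before FACS. Low and high (top ~1%) gates were set on anti-HA fluorescence for expression and streptavidin fluorescence for reagent binding, and each polyreactivity label reflects the gate of origin.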
row,Sequence,polyreactivity (PSR sort gate)
1,QVQLVESWGGLVQAGGSLRLSCAASGRIFWKYTMGWYRQAPGKERELVAAIRSGGGSTDYADSVKGRFTISRDNAKNSVYLQMNRLIPEDTAGYYCAAEPSQRYPLSGYVYWGQGTQVTVSS,low polyreactivity
2,QVQLVESWGGLVQAGGSLRLSCAASGRIFYDYAMGWYRQAPGKERELVAAISKGGGSTYYADSVKGRFTISRDNAKKTVYLQMNSLKAEDTAVYFCAASTSHTTDTRYDYWGQGTQVTVSS,low polyreactivity
3,QVQLVESWGGLVQAGGSLRLSCAASGRTFFYYAMGWYRQAPWKERELVAAISKSGGRTYYADSVKGRFTISRDNAKNTVYLQMNSLKPEDTAVYYCATLAQWYDRELDYWGQGTQVTVSS,high polyreactivity
4,QVQLVESWGGLVQAGGSLRLSCAASGRTFYSYVMGWYRKAPGKEREMVAAITSGGSTYYADSVKGRFTISRDNAKNTVYLQMNSLKPEDTAVYYCAADGDYASYDTFWYWAPEYDYWGQGTQVTVSS,low polyreactivity
5,QVQLVESWGGLVQAGGSLRLSCAASGSIFGENAMGWYREAPRKEMELVAAITSGGSTDYADSVKGRFTISRDNAKNTVYLQMNSPKVEDTAVYYCAASGRVGPGYCYDSWGQGTQVTVSS,low polyreactivity
6,QVQLVESWGGLVQAGGSLRLSCAASGSIFPWYAMGWYREAPGKERELVAAISKSGAGTYYADSVKGRFTISRDNAKNTVYLQMNSLKPEDTAVYYCNAVYRKTSYGYWGQGTQVTVSS,high polyreactivity
7,QVQLVESWGGLVQAGGSLRLSCAASGSTFRRNAMGCYRQAPGKERELVAAITRSGDSTYYADSVKGRFTISRDYAKNTVYLQMNSLKPEDTAVYYCAADSSRYRYRNQGYYWGQGTQVTVSS,high polyreactivity
8,QVQLVESWGGLVQAGGSLRLSCAASGSTFSLYTMGWYRQAPGKERELVATIDSGGSTNYADSVKGRFTISRDNAKNTVYLQMNSLKPEDTAVYYCVDYYNGYTHNYNYWGQGTQVTVSS,low polyreactivity
9,QVQLVESWGGLVQAGGSLRLSCAASGSTIAYYVLGWYRQAPRKERELVAAINFSGDSTYYADSVKGRFTNSRDNAKNTVNLQMNSLKPEDTAVYYCAVDWGEYIDTSVKRDISYYWGQGTQVTVSS,low polyreactivity
10,QVQLVESWGGLVQAGGSLRLSCAASGYISNAMGWYRQAPGKERELVAVITRGGSTNYADSVKGRFTISRDNAKNTVYLQMNSLKPEDTAVYYCAKDVPYRRVRSEYWGQGTQVTVSS,low polyreactivity
11,QVQLVESWGGLVQAGGTLRLSCAASGSTFTLNCMGWYRQAPGKERELVASITWSGGSTYYADSVKGRFTISRDNAKNTVYLQMNSLKPEDTAVYYCADDEKLYITGYDYWGQGTQVTVSS,low polyreactivity
12,QVQLVESWGGLVQEGGSLRLSCAASGSTFGPYAMGWYRQAPGKERELVAAITESGDSTYYADSVKGRFTISRDNAKNSVYLQMNSLKPEDTAVYYCAATRGSSEYYYWGQGTQVTVSS,low polyreactivity
13,QVQLVESWGGLVQSGGSLRLSCAASGFTFGHNAMGWYIQAPGKERELVAAIDTSGGSTYYADSVKGRFTISRDNEKNTVYLKMNSLKPEDTAVYYCAAFSASYGGYDYWGQGTQVTVSS,high polyreactivity
14,QVQLVESWGGLVQSGGSLRLSCAASGSIFSFYPMGWYRQAPGKERELVAAISSGGSTYYADSVKGRFTISRDNAKNTVYLQMNSLKPEDTAVYYCAADQHIRVSWYLQMYYWGQGTQVTVSS,low polyreactivity
15,QVQLVESWGGVVQAGGSLRLSCAASGRIFQHYAMGWYRQAPGKERELVAAISWRGGSTYYADSVKGRFTISRDNAKNTVFLQMNSLKPEDTAVYYCAAGYRGRIPGFDYWGQGTQVTVSS,high polyreactivity
16,QVQLVESWGRLVQAGGSLRLSCAASGSTFTGNAMGWYRQAPGKERELVAVISSGASTNYADSVKGRFTISRDNAKNSVSLQMNSLKAEDSAVYYCAADSWDYDSRMDYWGQGTHVTVSS,low polyreactivity
17,QVQLVESWGVLVQAGGSLRLSCAASGSIFYYYVMGWYRQAPWKERELVAAISYGGGTNYADSVKERFTISRDNAKNTVYLQMISLKPEDTAVYYCNVVTYRRFDYWGQGTQVTVSS,low polyreactivity
18,QVQLVETCGGLDQAGVSLRLSCAASGIIFKTYAMGWYRQAPGKETEYVAPISVSGGGTYYADSVKGRFTISRDNAKNTVYLQMNSPKPEDTAVYYCAARSWYWRYYTLNPYDYWVQGTQVTVSS,high polyreactivity
19,QVQLVETGGGLFQAGGSLRISCAASGSTFYTYAMGWYRQSPGKERELVAAITRRGGRTYYADSVKGRFTISRDNAKNTVYLQMNSLKPEDTAVYYCAADSRTNGYDYWGQGTQVTVSS,high polyreactivity
20,QVQLVETGGGLVHAGGSLRLSCAASGFIFVVNAMGWYRQAPGKERELVAAITRNGGSTYYADSVKGRFSISRDNEKNTVYLQMNSLKPEDTAVYYCATYVRRAPSTFDVDYWGLGTQVTVSS,high polyreactivity
21,QVQLVETGGGLVHAGGSLRLSCAASGITFTTNTMGWYRQAPGKERELVAAISSTGGNTFYADSVKGRFTISRDNAKNTVYLQMNSLKPEDTAVYYCSYVPSNARGEYDSWGQGTQVTVSS,low polyreactivity
22,QVQLVETGGGLVKAGGSLRLSCGASGFIFTYNAMGWYRQAPGKERELVAAISGSGGRTYYADSVKGRFTISRDNAKNTVYLQMNSLKPEDTAVYYWNRDPKSLSYGSRGFGYWGLGTQVTVSS,high polyreactivity

row,Sequence,polyreactivity (PSR sort gate)
1,QVQLVETGGGLVQAGASLRLSCAASGRTFVYNAMGWYRQAPGKEREFVAAIDGGGDRTFYADSVKGRFTISRDYAKNTVYLQMNSLKPEDTAVYYCARDPGDTYYYSYPEGDYWGQGTQVTVSS,low polyreactivity
2,QVQLVETGGGLVQAGGRLRLSCAASGSTFGSYAMGWYRQAPGKERELVATITESDGTTYYADSVKGSFTISRDNAKNTVYLQMNSLKREDTAVYYCAANYSGDRKRYWPGDTDDYWGQGTQVTVSS,high polyreactivity
3,QVQLVETGGGLVQAGGSLGLSCDASGSTFLYVRGWYRQAPGKERELVAAISESGGSPYYADSVKGRFTISRDNAKNTVYLQMNSLKPEDTAVYYCAADLPSGLQYRYYRVDYWGQGTQVTVSS,low polyreactivity
4,QVQLVETGGGLVQAGGSLLLSSAASGIIIRYYGMGCYGQAPGTERELVARIRWTGGSTYSADSVKGRFTISRDNAKNTVYLQMNSLKPEDTAVYYCAADIWQYSRIANYHPFDYWGQGTQVTVSS,low polyreactivity
5,QVQLVETGGGLVQAGGSLRLSCAASARTFVNYAMGWYRQAPGKEREFVAAITNGGRTNYADSVKGRFTISRDNAKNTVYLQMNSLKQEDTAVYYCAARYRFGGIRRFNYWGQGTQVTVSS,high polyreactivity
6,QVQLVETGGGLVQAGGSLRLSCAASGCIITYYAMGWYRPAPGKERELVAAITASGSRTYYADSVKGRFTISRDNAKNTVYLQMNSLKPEDTAVYDCASDNWQWYPSTWYDYWGQGTQVTVSS,high polyreactivity
7,QVQLVETGGGLVQAGGSLRLSCAASGFIFEFYAMGWYRQAPGKERELVAAITGRGGSTYYADSVKGRFTISRDNAKNTVYLQMNSLKPEDTAVYYCAASIGGQVPGFGWYDYWGQGTQVTVSS,low polyreactivity
8,QVQLVETGGGLVQAGGSLRLSCAASGFIFGYNAMGWYRQAPGKERELVATISWSGGSTYYADSVKGRFTISRDNAKNTVYLQMNSLKPEDSAVYYCAAEGWERLGWVSWVTVDYWGQGTQVTVSS,low polyreactivity
9,QVQLVETGGGLVQAGGSLRLSCAASGFTIWKYAMGWYRQAPGKERELVAAISLGGGRTYYADSVKGRFTISRDNANNTVYLQMNSLKPEDTAVYYCNAKIVSSVLYDYWGQGNQVTVSS,low polyreactivity
10,QVQLVETGGGLVQAGGSLRLSCAASGIIFSRYAMGWYRQAPGIERELVASITGRVGSTYYADSVKGRFTISRDNAKNTVYLQMNRLKPEDTAVYYCAADYGYKFDYWGQGTQVTVSA,low polyreactivity
11,QVQLVETGGGLVQAGGSLRLSCAASGITFFGYDIGWYRQAPGKERELVAAINSRGGNTYYADSVKGRFTISRDNAKYTVYLQMNSLKPEDTAVYYCAARRYYNRAYGYWGQGTQVTVSS,high polyreactivity
12,QVQLVETGGGLVQAGGSLRLSCAASGITFVYYAMGWYRQAPGKERELVPSISSADNTNYADSVKGRFTISRDNAKNTVYLQMNSLKPEDTAVYYCAADFCWHLRHDSTGGYWGQGTQVTVSS,low polyreactivity
13,QVQLVETGGGLVQAGGSLRLSCAASGITSRPYVMGWYRQAPGKERELVAAISLTGGRTYYADSVKGRFTISRDNAKNTVYLQMNSPKPEDTAVYYCAAARSPYKYSYWGQGTQVTVSS,high polyreactivity
14,QVQLVETGGGLVQAGGSLRLSCAASGLIFVSNAMGWYIQAPGKVRELVAAISKSVGRTYYADSVKGRFTISRDNEKNTVYLQMNSLQPEDTAVYYCAARSRVSPRYDYWGQGTQVTVSS,high polyreactivity
15,QVQLVETGGGLVQAGGSLRLSCAASGLIFYRYAMGWYRQAPGKERELVAVITRSGGNTNYADSVKGRFTISRDNAKNTVYLQMNSLKPEDTAVYYCATRGIWKKVPYYYWGQGTQVTVSS,high polyreactivity
16,QVQLVETGGGLVQAGGSLRLSCAASGLTFKYYTKGWYRQAPGKERELVASISWSGGSTYYADSVKGRFTISRDNAKNTVYLQMNSLKPEDTAVYYCARRGYWGPGALGGGGYYWGQGTQVTVSS,high polyreactivity
17,QVQLVETGGGLVQAGGSLRLSCAASGRIFGPYAMGWYRQAPGKERELVAAITWSGVSTYYADSVKGRFTISRDNAKNSVYLQMNSLKQEDTAVYYCAVDPRGHEGVRYNYWGQGTKVTVSS,low polyreactivity
18,QVQLVETGGGLVQAGGSLRLSCAASGRIFYLYAMGWYRQAPGKEWELVAAISSSGGSTYYADSVKGRFTISRDNAKTTVYLQMNSLKPEDTAVYYCNARRRTVPYRYDYWGQGTQVTVSS,high polyreactivity
19,QVQLVETGGGLVQAGGSLRLSCAASGRIFYYYAMGWYRQAPGKERELVAGIDSGDSTNYADSVKGRFTISRDNAKNTVYLQMNSLKPEDTAVYYCAALHYGVYFSYYPYYYWGQGTQVTVSS,low polyreactivity
20,QVQLVETGGGLVQAGGSLRLSCAASGRTFGHNDMGWSRQAPGKERELVATISSDGSTNYADSVKGRFTISRDNAKNTVYLQMNSLKPEDTAVYYCAKVYQYVEYDYWGQGTQVTVSS,low polyreactivity
21,QVQLVETGGGLVQAGGSLRLSCAASGRTFKGYAMGWYRQSPGKERELVAGISRGAGRTYYADSVKGRFTISRDNAKNTVYLQMNSLKPEDTEVYYCAAVPSYHSTSPFYYWGQGTQVTVSS,high polyreactivity
